Experiments:
[1] = target: poliovirus receptor-related 4 (ovis aries Nectin-4), Nectin 4-Myc (ovis aries); assay: co-IP
[2] = target: Peste-des-petits-ruminants virus haemagglutinin (H) protein of the Nigeria 75/1 strain, Hv-HA (Peste-des-petits-ruminants virus, strain Nigeria 75/1); assay: co-IP
[3] = target: Peste-des-petits-ruminants virus haemagglutinin (H) protein of the Nigeria 75/1 strain, Hv-HA (Peste-des-petits-ruminants virus, strain Nigeria 75/1); assay: SPR

Substance | calibrated ratio of co-IP (percent of Hv and Nectin 4) [1] | calibrated ratio of co-IP (percent of Hv and Nectin 4) [2] | Kd [3] | koff [3] | kon [3]
Peste-des-petits-ruminants virus haemagglutinin (H) protein of the Nigeria 75/1 strain, Hv-HA (natural protein) | 100% | – | – | – | –
poliovirus receptor-related 4 (ovis aries Nectin-4), Nectin 4-Myc | – | 100% | 306 nM | 0.000435 s⁻¹ | 1420 M⁻¹ s⁻¹
